This note sets out measurements from the nanobody polyreactivity screen of Harvey et al. (2022).

The data set is described as follows: yeast display, Sf9 membrane polyspecificity reagent, FACS + sequencing; frameworks hold sequencing errors. In a few lines:
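In a synthetic yeast display library (Saccharomyces cerevisiae BJ5465), nanobody expression was induced with galactose for 36–48 hours. FACS gates were set low and high (top ~1%) using anti-HA fluorescence for expression and streptavidin fluorescence for binding of the Sf9 membrane reagent. Each polyreactivity label is drawn from the gate of origin.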
On to “QVQHVESVGGLVQAGGSLRLSCAASGRTFTSYDMGWYRQAPLTEREVVAAITGSYTYYADSVKGRFTISRDNAKNTVYLQFNSLKPEDTAVYYCAADEDDVVSGFLRYFYVSYYYWGQGTQVTVSS”, for which the “polyreactivity (PSR sort gate)” value is reported as “low polyreactivity”.
“QVQHVESVGGLVQAGGSLRLSCAASGYIFIRYPMGCYRQANGKERELDAAITWSDGTTYYADSVKGRFTISRDNAKNTVYLQMNSLKPEDTAVYYCAADRKVESVSRYDYWGQGTQVTVSS”: the “polyreactivity (PSR sort gate)” value is “low polyreactivity”.
For the sequence “QVQHVETGGGLVQAGGSLRLSCAASGFIFTRYVMGWSRQAPGKERELVAAISRIGASTYYADSVKGRFSISRDNAKNPVYLQMNSLKPEDTAVYYCNVVSGGYFEYEYCGQGTQVTVSS”, the “polyreactivity (PSR sort gate)” value is “high polyreactivity”.
In the case of “QVQHVETGGGLVQAGGSLRLSCAASGFLFYFNDKGWYRQAPGKERELVASITSGASTNYADSVKGRFTISRDNAKNTVYLQMNSLKPEDTAVYYCAAAYFWLYPYVEYDYWGQGTQVTVSS” it was “low polyreactivity”; in that of “QVQHVETGGGLVQAGGSLRLSCDASGRIFYNYVMGWYRQAPGKERELVAAISFSSGNTYYADSVKGRFTISRDNAKNSVYLQMNSLTPEDTAVYYCNADIYTWFQIGGYQYDYWGQGTQVTVSS”, “low polyreactivity”; in that of “QVQHVHSGGGLVQAGGSLRLTCAASGSTFVGNAMVRYRQATGKERELVATISNSGGRTYYADSVKGRFTISRDNPKNTVYLQMNSLKAEDTAVYFCAADHPAFVPVYSFDYWGQGTQVNVSS”, “low polyreactivity”.
Regarding “QVQIEESGGGLDQAGGSLRLTCAASGFTIPSYTRGWYRQAPGKERELVAAISRSDGTTYYAYSVKGRFTISRDNAKNSVYLQLNSLKPEDTAVYYCNKAYKRYGYHYDYWGQGTQVTVSS”, the “polyreactivity (PSR sort gate)” value is given as “high polyreactivity”.
The same measure for “QVQIEESGGGLVQAGGSHRLSCAASGSTSYWYAMGWSRQAPRKERELVAAISSDDSTNYADSVKGRFTISRDNAKNTVYLQMNSLKPEDTAVYYFNREHYLIRYDYWGQGTQVTVSS”: “low polyreactivity”; for “QVQIEESGGGLVQAGGSLRLSCAASGLIFYYYAMGWYRQAPRKERELVAVFTESGYSTYYADYVKGLFTISRDYAKNNDYLQMNRLKPEDTAVYYCAAHGRAYVGGVGDDYWGQGTQVTVSS”: “low polyreactivity”; for “QVQIEESVGDLVQAGGSLRLICAASGRTFPVYDMGWYRQAPGKERELVAAISRRAVRTYYADSVKGRFTISRDIAKNTVYLQMNSLKPEDTAVYYCNAVLRKITYDYWGQGTQVTVSS”: “high polyreactivity”.
As to “QVQIGESGGGLVQAGGSLRLSCAASGFIIGTNTMGWYRQAPGKERELVAAITSVGSTNYADSVKGRFTISRDNAKNTVYLQMNSLKPEDTAVYYCPATLYYQYGGDYWGQGTQVTVSS”, the “polyreactivity (PSR sort gate)” value is given as “low polyreactivity”.
As for “QVQILESGVCLVQARGSLRLSCAASGRTFRSNAMGWYRQAPGKERDLVAAITSSGGRTYYADSVKGRFTISRDNAKNTVYLQMNILKPEDTAVYYCNAVLRQYYRAYDYWGQGTQGTVSS”, the “polyreactivity (PSR sort gate)” value is recorded as “high polyreactivity”.
In the case of “QVQIVDSGGGLVQAGGSLRISCAASGYISRVYAMGWYRQAPRKERELVAAITRSTTYYADSVKGRFTISRDNAKNTVYLQMNSLKPEDSAVYYCNAVWASPGQVRMYYWGQGTQVNVSS” it was “high polyreactivity”; in that of “QVQIVESAAGIVQAGGSLRLSCAASGSIFLLYAIGWYRQAPGKEMEFVAAITRGGGSTYYADSVKGRFTISRDNEKNIDYLQINSLIPEDTAVYYWYKGFQYHNGSLVVAYDYWGQGTQVTVSS”, “low polyreactivity”; in that of “QVQIVESAGGLVQAGGSLSLSCAASGITYVFYALGWYRQEPGKERELVSDMSWSGGITYYADSVMGRFTISRDNAKNTVYLQMNSLKPEDPAVYYCAATKRQTKYYGGTTDSIMYYWGQGTQVTVSS”, “low polyreactivity”.
The same measure for “QVQIVESCGALVQAGRSLSLSCAASGSTFWDNVMGSYRQAPGKERELVAASTSGGSTNYADSVKGRFTISRDNAMNTDYLQLNSLIPEDTAVYYCAAGWYLYVLPYRYYYWRQGTQVTVSS”: “low polyreactivity”; for “QVQIVESGGALVQAGGSLSLSCAASRSTFYRNDMGWYRQAPGKEREFVAAISFRGGGTYADSVKGRFTISRDNAKITVYLQMNSLKPEDTAVYYCAADHLSYRRRYEYWGQGTQVTVSS”: “low polyreactivity”.
On to “QVQIVESGGGIVQAGGSLRLSCGASGRTFYYYAMGWYRQAPGKERELVASITWSGSSTTYADSVKGRFTISRDNSKNTFVLQLNRLKQQASAVYYCAADPYFWGYHFRRYGSWGQGTQVTVSS”, for which the “polyreactivity (PSR sort gate)” value was “low polyreactivity”.
The same measure for “QVQIVESGGGLDQAGGSLRLSCAASGSTFVLNPMGWYRQAPGKERGMVAAISSGGRTYYADSVKGRFTISRDNAKNTVYLQMNSLKPEDTAVYYCAANPYRGGHGTLFGYWGQGSQVTVSS”: “high polyreactivity”.
In the case of “QVQIVESGGGLFQAGGSLRLSCAASGLIFYSYAMGWYRQAPWKERELVAAISSGGGSTYYADSVKGRFTISRDNAKNTVYLQLNSLKPEDTAVYYCNRLYKYRTPDYDHWGQGTQVTVSS” it was “high polyreactivity”.
In the case of “QVQIVESGGGLVEAGGSLRLSCAASGRTFWYIAMGWYRQSPGKASELVAAISYTGSRTYYADSVKGRFTISRYNAKNTVYLQMNSLKPDDTAVYYCNALARRPDAYAHYGYWGQGTQVSVSS” it was “high polyreactivity”; in that of “QVQIVESGGGLVQAGGRLRLSFSASGIIFTGNAMGWYRQAPGKERELVAAITSGDTTNYADSVKGRFTISRDNAKNTVYLLMNSLKPEDTAVYYCAKELQVRQAGDYWGQGTQVTVSS”, “low polyreactivity”.
In the case of “QVQIVESGGGLVQAGGSHRLSCAASGSTFVYNAMGWYRQAPGIQRELVAAITVIGGRTYYADSVKGRFTISRDNAKNTVYLQMNSLKPEDTSVYYCNGTWAYRGHGYWGQGTEVTVSS”, the “polyreactivity (PSR sort gate)” value is “low polyreactivity”.
In the case of “QVQIVESGGGLVQAGGSHRLSCADSGRTFGVNTMGWYRQAPAKERQFVAAISSRSGSTYYADSVKGRFTISRDNAKNNVYLQMNSLKPEDTAVDYCAKGPLPRAGVKFDYWGHGTQVTVSS” it was “low polyreactivity”; in that of “QVQIVESGGGLVQAGGSIRLSCAASGSIFYDNDMGWYRQAPAKERELVAAISWSASDTYYADSVKGRFTISRDNAKNTVYLQMNSLKPEDTAVYYCNAEVYEWYVVYSALDYWGQGTQVTVSS”, “low polyreactivity”.
The same measure for “QVQIVESGGGLVQAGGSLRISCAATGSTFDSFAMGWYRQAPGKERELVDAITRRGTRTYYADSVKGRFTISRDNAKNTVYLQRNSLKPEDTAVYYCNAVTQCSKTPGYGFNYWGQGTQVTVSS”: “high polyreactivity”; for “QVQIVESGGGLVQAGGSLRISCPASGRTFNYNAMGWYRQAPGKERELVAAITSGASTNYADSVKGRFTISRDNAKNTVFLQINRLKPEDTAVYYCAKATYPHEYDYWGQGTQVNVSS”: “low polyreactivity”.
In the case of “QVQIVESGGGLVQAGGSLRLRCAASGRIFSWNAMGWSRQAPGKERELVPAITWRGTSTYYADSVKGRFTISRDIAKNTVYLQMISLKPEDTAVYFCNVGLYRDWYTFGLEYDYWGQGTQVSVSS” it was “low polyreactivity”.
As to “QVQIVESGGGLVQAGGSLRLSCAASGFTFGHYAMGWYRQAPGKERELVAAISYSGVRTYYADSVKGRFTISRDNAKNTVYLQMNSLKPEDTAVYYCNKYPAHYQTRRYDYWGHGTQVTVSS”, the “polyreactivity (PSR sort gate)” value is “high polyreactivity”.
The same measure for “QVQIVESGGGLVQAGGSLRLSCAASGFTFRAYAMGWYRQAPGKERELDAAISKSGGRTYYADSVKGRFTISRDNAKNTVYLQMNSLKPEDTAVYYCAKAYRRAFINNPDVYYYPDDYWGQGTQVTVSS”: “high polyreactivity”; for “QVQIVESGGGLVQAGGSLRLSCAASGGIFAVNAMGWYRQAPGKERELVASITRTGGSTSYEDSVKGRFTISRDNAKNTVYLQMNSLKPEDTAVYYCAAGWQVVLSTNGMDYWGQGTQVTVSS”: “high polyreactivity”.
The same measure for “QVQIVESGGGLVQAGGSLRLSCAASGGTFPAYAMGWYRHAPGKERELVAAISDDDSTYYADSVKGRFTISRDNAKNTVYLQKNSLKPEDTAVYYCNVEYWYYPSVEYSWTAYDYWGQGTQVTVSS”: “low polyreactivity”; for “QVQIVESGGGLVQAGGSLRLSCAASGIIFYYYAMGWYRQAPGKERELVAAITKSGGSTYYADSVKGRFTISRDNAKNTVYLQMNSLKPEDTAVYYCAAEYSYYPLVGLDYWGQGTQVTVSS”: “low polyreactivity”.
Regarding “QVQIVESGGGLVQAGGSLRLSCAASGITFLWNVMGWYRQAPGKERELVATITSIGGITNYADSVKGRFTISRDNAKNSVYLQMNSLKTEDSAFYYCATQIVSGSRVDRNDYWGQGTQVTVSS”, the “polyreactivity (PSR sort gate)” value was “low polyreactivity”.
In the case of “QVQIVESGGGLVQAGGSLRLSCAASGLTLGRNAMGWYRQAPGKERELVAAITQSGGSTYYADSVKGRFTISRDNAKNTVYLQMNSLKPEDTAVYYCAAEVVRQWHGIGYDYWGHGTQVTVSS” it was “low polyreactivity”.
Turning to “QVQIVESGGGLVQAGGSLRLSCAASGRIFDGNALGWYRQAPGKERELVAAISRIGGTYYADSVKGRFTISRDNAKNTVYLQMNRLKPEDTAVYYCAADPSSVGYHVEYDYWGQGTQVTVSS”, the “polyreactivity (PSR sort gate)” value is “low polyreactivity”.
In the case of “QVQIVESGGGLVQAGGSLRLSCAASGRIFFQYALGWYRQAPGKERELVAAIRYSGGSTYYADSVKGRFTISRDNAKNTVYLQMNSLKPEDTAVYYCAARYTRRHYDYWGQGTQVTVSS”, the “polyreactivity (PSR sort gate)” value is “high polyreactivity”.
Regarding “QVQIVESGGGLVQAGGSLRLSCAASGRIFGAYGMGWYRQAPGKERELVAAISNGGRTSYADSVKGRFTISRDNAKNTVYLQMNSLKPEDTAVYYCAAVYWQWYGAYDYWGQGTQVTVSS”, the “polyreactivity (PSR sort gate)” value is on record as “high polyreactivity”.
The same measure for “QVQIVESGGGLVQAGGSLRLSCAASGRIFVPYVMGWYRQAPGKERELVASISDSDTSTYYADSVKGRFTISRDNAKNTVYLQMNSLKPEDSAVYYCAAGVLRRATELYYWGQGTQVTVSS”: “low polyreactivity”.
The same measure for “QVQIVESGGGLVQAGGSLRLSCAASGRIIGTYAMGWYRQAPGKERELVATISYSSGRTYYADSVKGRFTISRDNAKNTVYLQMNSLKPEVTAVYYCAAVGTGSSLRYDYWGQGTQVTVSS”: “high polyreactivity”.
